Reference: publication PMC9490041 (2022)
Like-named read-outs stand apart in the source and are kept apart here. Ends that are not written are not given here. * marks the point of attachment. FITC = O=C1OC2(c3ccc(O)cc3Oc3cc(O)ccc32)c2ccc(NC(=S)*)cc21; Dansyl = CN(C)c1cccc2c(S(=O)(=O)*)cccc12

How the values were obtained:
[1] = biological target: PSG (PSD-95), PDZ3-SH3-GK supramodule, wild type; experiment: FP
[2] = biological target: PSG (PSD-95), PDZ3-SH3-GK supramodule, wild type

Binder | Kd [1] [nM] | Kd [2] [nM]
{FITC}-PLVGQDIIDLQTEV [FITC-14 AA ADGRB1] | 60000 | –
Dansyl-KTESKKHGRWKLWFL [15 AA INSY2, dansylated (DNS-KTESKKHGRWKLWFL)] | – | 161000
Dansyl-RDGCHRLPKIKETTV [15 AA FRPD4, dansylated (DNS-RDGCHRLPKIKETTV)] | – | 760
Dansyl-AQRGSFPPWVQQTRV [15 AA SynGap (DNS-AQRGSFPPWVQQTRV)] | – | 550
Dansyl-GKKVLDTKNYKQTSV [15 AA CRIPT, dansylated (DNS-GKKVLDTKNYKQTSV)] | – | 490
